B1: biliverdin reductase (protein)
chain: MNAEPERKFGVVVVGVGRAGSVRMRDLRNPHPSSAFLNLIGFVSRRELGSIDGVQQISLEDALSSQEVEVAYICSESSSHEDYIRQFLNAGKHVLVEYPMTLSLAAAQELWELAEQKGKVLHEEHVELLMEEFAFLKKEVVGKDLLKGSLLFTSDPLEEDRFGFPAFSGISRLTWLVSLFGELSLVSATLEERKEDQYMKMTVCLETEKKSPLSWIEEKGPGLKRNRYLSFHFKSGSLENVPNVGVNKNIFLKDQNIFVQKLLGQFSEKELAAEKKRILHCLGLAEEIQKYCCSRK
modifications: left off: a dimerising Fc or GST
B2: Y^198: human BVR point mutant, DQYMK to DQFMK (protein, UniProt P53004 3-296, looked up, variant Y198F)
Biliverdin reductase A: AEPERKFGVVVVGVGRAGSVRMRDLRNPHPSSAFLNLIGFVSRRELGSIDGVQQISLEDALSSQEVEVAYICSESSSHEDYIRQFLNAGKHVLVEYPMTLSLAAAQELWELAEQKGKVLHEEHVELLMEEFAFLKKEVVGKDLLKGSLLFTAGPLEEERFGFPAFSGISRLTWLVSLFGELSLVSATLEERKEDQFMKMTVCLETEKKSPLSWIEEKGPGLKRNRYLSFHFKSGSLENVPNVGVNKNIFLKDQNIFVQKLLGQFSEKELAAEKKRILHCLGLAEEIQKYCCSRK

Legend:
[1] = biological target: T1, insulin receptor tyrosine kinase (IRK) (Homo sapiens, UniProt P06213); experiment: BVR phosphorylation by the insulin receptor tyrosine kinase (IRK), in vitro [32P]-ATP assay; format: biochemical; details: for time course of phosphorylation by IRK: incubation with IRK up to 3-4 h, pH 8.0
T1 construct: the 48 kDa cytoplasmic domain of the β-subunit of IRK; purchased Biomol International (Plymouth, Pa.)
Procedure: BVR phosphoiylation by the insulin receptor tyrosine kinase (IRK): Phosphorylation of BVR by IRK was examined using GST-HBVR fusion protein and the 48 kDa cytoplasmic domain of the β-subunit of IRK. BVR (5 μg) was incubated in 50 μl of IRK kinase buffer containing 50 mM HEPES (pH 8.0), 20 mM MgCl2, 1 mM DTT in the presence of 0.05 μg IRK and 10 μM ATP labeled with 10 μCi [γ-^32P]-ATP. The reaction was started with the addition of labeled ATP and incubated for 2-4 h. Reactions were terminated by addition of Laemmli sample buffer and boiled for 3 min. Samples were subjected to 8% SDS-PAGE and transferred to PVDF membranes for autoradiography.

[2] = Reductase activity of purified BVR; format: biochemical, human; details: purified BVR not phosphorylated by IRK
Procedure: Measurement of BVR Reductase Activity: 293A cells treated with insulin were lysed in buffer containing a protease inhibitor cocktail and phosphatase inhibitors (10 mM NaF, […]). BVR activity was measured at pH 6.7 using NADH as the cofactor as described previously (Huang et al., J. Biol. Chem. 264:7844-9 (1989), which is hereby incorporated by reference in its entirety). The rate of conversion of biliverdin to bilirubin was determined as the increase in absorbance at 450 nm at 25° C. Specific activity is expressed as μmol of bilirubin/min/mg of protein.

[3] = tested on: 293A cells; experiment: Insulin-mediated glucose uptake (2-deoxy 1-[3H] glucose); format: cell-based, human; details: insulin 15 min, vs controls infected with vector alone, p≦0.05
Procedure: Cell culture and transfection and infection of 293A: 293A cells were grown in 10 cm-plates with Dulbecco's Modified Eagle Medium (DMEM) (Invitrogen, Carlsbad, Calif.) containing 10% fetal bovine serum and 1% penicillin-G/streptomycin for 24 h or until a confluency of 70% was reached. Cells were subsequently transfected with 4 μg of pcDNA3 mutant BVR Y^198 using Transfectin Lipid Reagent (Bio-Rad, Hercules, Calif.), according to the manufacturer's procedure and incubated for 48 h at 37° C. In addition, non-transfected cells were infected with pSuper-Retro-siBVR for 24 h in the presence of 4 μg/ml polybrene. Cells were starved in serum-free DMEM 16 h prior to insulin treatment (50 nM).
Glucose uptake: Glucose uptake was assessed by measuring 2-deoxy 1-[^3H] glucose (2DG) absorption as described by (Braiman et al. (Mol. Endocrinol. 13:2002-12 (1999)), which is hereby incorporated by reference), with minor modifications. Briefly, after insulin treatment, cells in 6-wells plates were incubated in 1 ml PBS containing 5 mM glucose and 1 μCi/ml 2DG for 15 min. Solution was aspirated rapidly and wells were washed 3 times with cold PBS. Cells were solubilized by addition of 200 μl 1% (w/v) SDS. Radioactivity was measured and data was normalized to protein concentration. Non-specific uptake was determined in the presence of 200 mM of glucose and was subtracted from the total uptake. […]

[4] = tested on: human BVR; experiment: BVR autophosphorylation; format: biochemical; details: pH 8.4, 30 mM MnCl2, 2 h, 30° C.
Procedure: BVR autophosphorylation and kinase activity: To detect autophosphorylation of BVR, GST-hBVR of wild type (wt) and mutant variants were incubated in 50 mM HEPES buffer (pH 8.4) in the presence of 30 mM MnCl2 and 1 mM DTT for 2 h at 30° C. The reaction was started with the addition of 10 μM ATP labeled with 10 μCi [γ-^32P]-ATP and was stopped with the addition of Laemmli sample buffer. Samples were boiled for 3 min and applied to a 8% SDS-PAGE gels, transferred to a PVDF membrane, and then visualized by autoradiography. To measure kinase activity, GST-BVR (5 μg) was incubated in 50 μl kinase buffer containing 50 mM HEPES buffer (pH 8.4), 20 mM MgCl2, 30 mM MnCl2, 1 mM DTT and 10 μM ATP labeled with 10 μCi [γ-^32P]-ATP in the presence of 5 μg substrates: IRS-1 or Raytide or poly glu/tyr (4:1) for 2 h at 30° C. The reaction was started with the addition of ATP and terminated by adding 120 μl 10% H3PO4. 100 μl aliquots were directly transferred to P81 Whatman filters which were subsequently washed extensively in 0.75% phosphoric acid at room temperature. Finally, the filters were submerged in acetone for 5 min, dried, and retained counts were measured using a Beckman LS 6500 liquid scintillation counter (Beckman Coulter, Fullerton, Calif.).

T1 sequence (P06213 980-1382 limits assumed): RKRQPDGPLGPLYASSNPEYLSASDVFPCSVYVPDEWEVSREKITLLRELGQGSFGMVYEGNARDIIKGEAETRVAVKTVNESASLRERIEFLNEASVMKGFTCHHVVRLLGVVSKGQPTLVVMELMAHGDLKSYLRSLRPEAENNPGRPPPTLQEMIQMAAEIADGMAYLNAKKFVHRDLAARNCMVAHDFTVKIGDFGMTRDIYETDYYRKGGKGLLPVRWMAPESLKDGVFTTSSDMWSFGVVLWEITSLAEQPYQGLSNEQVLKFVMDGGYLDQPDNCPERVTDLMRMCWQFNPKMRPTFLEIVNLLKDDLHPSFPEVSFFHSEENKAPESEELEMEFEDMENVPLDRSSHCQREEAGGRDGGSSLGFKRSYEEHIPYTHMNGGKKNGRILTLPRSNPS

Molecule	time course of phosphorylation by IRK [1]	BVR reductase activity of the control [2] [μmol per min per mg]	insulin-mediated glucose uptake [3]	decrease of BVR phosphorylation by IRK caused by point mutation ([1]; mutant vs wtBVR, IRK 2 h at 30° C.) [%]	autophosphorylation of BVR mutants [4]
B1	detected when assessed at 1 h, and gradually increased up to 4 h	43.8			
B2	less effective substrate for IRK		increased significantly	~70	did not result in significant changes in autophosphorylation of BVR

Source: patent US8455427B2, “Methods of modifying insulin signaling using biliverdin reductase” (University of Rochester, priority 2005, dated 2013)
